One assay deals with Bevacizumab. The assay can be described thus: ELISA. As to conditions: point at the highest antibody concentration, about 13.3 nM (read from x axis); VEGF captured on ELISA plate; parent: est. 0.86; read off a plot.
The target of assay [1] is Recombinant human VEGF165 (human) (UniProt P15692). The assay can be described thus: ELISA; inhibition of VEGF/VEGFR-2 interaction.
A further assay addresses humanized EBV321. The assay can be described thus: ELISA. As to conditions: point at the highest antibody concentration, about 13.3 nM (read from x axis); VEGF captured on ELISA plate; parent: est. 0.66; read off a plot.

Sequence of Recombinant human VEGF165 (human) (P15692 other isoform, or with tags, fused parts or gaps): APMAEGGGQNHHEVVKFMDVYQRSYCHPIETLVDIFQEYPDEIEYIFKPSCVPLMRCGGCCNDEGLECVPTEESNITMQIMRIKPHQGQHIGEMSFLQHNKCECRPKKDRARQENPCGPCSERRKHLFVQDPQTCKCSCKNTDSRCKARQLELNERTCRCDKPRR
Sequence of rabbit IgG Fc-hVEGF (human VEGF165) fusion protein, wild type (from UniProt P15692-4) G88A (P15692 whole entry, looked up, stated change not applied, the tested form may be a part): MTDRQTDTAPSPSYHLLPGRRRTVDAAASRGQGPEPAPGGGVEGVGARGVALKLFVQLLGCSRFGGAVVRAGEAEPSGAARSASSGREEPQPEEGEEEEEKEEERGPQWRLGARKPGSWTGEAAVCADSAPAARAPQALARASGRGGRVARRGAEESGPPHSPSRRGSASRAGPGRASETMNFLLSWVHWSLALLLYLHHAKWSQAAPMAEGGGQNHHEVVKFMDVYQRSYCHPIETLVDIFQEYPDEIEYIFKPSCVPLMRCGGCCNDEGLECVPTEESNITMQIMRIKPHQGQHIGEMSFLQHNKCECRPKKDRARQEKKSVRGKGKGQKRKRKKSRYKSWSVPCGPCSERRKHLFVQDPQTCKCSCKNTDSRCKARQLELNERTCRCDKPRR
Sequence of rabbit IgG Fc-hVEGF (human VEGF165) fusion protein, wild type (from UniProt P15692-4) I46A (P15692 whole entry, looked up, stated change not applied, the tested form may be a part): as above
Sequence of rabbit IgG Fc-hVEGF (human VEGF165) fusion protein, wild type (from UniProt P15692-4) G88A; Q89A (P15692 whole entry, looked up, stated change not applied, the tested form may be a part): as above

As for “rabbit IgG Fc-hVEGF (human VEGF165) fusion protein, wild type (from UniProt P15692-4) G88A”, the response with Bevacizumab is 0.57 OD (405nm).

As to Bevacizumab, in assay [1], the IC50 turned out to be 893 pM.

Take “rabbit IgG Fc-hVEGF (human VEGF165) fusion protein, wild type (from UniProt P15692-4) G88A; Q89A”: the response with Bevacizumab was 0.13 OD (405nm); in the assay with humanized EBV321 it was 0.76 OD (405nm).

As for “rabbit IgG Fc-hVEGF (human VEGF165) fusion protein, wild type (from UniProt P15692-4) I46A”, the response with Bevacizumab was 0.88 OD (405nm).
